Source: IntAct's records for PubMed 16923827

B1: Spindle pole body assembly component MPS3 (Saccharomyces cerevisiae), P47069 (parent)
chain: MNNSNEHRREEAGAANEQMPYNKAVKSAYADVLKDKMNREQEISLRAIKKGIYTDGGETDNYDMDKENDSAYEMFKKNLDFPLDQHNDDDDDDPYIEDNGQETDGYSDEDYTDEADKSFIEDSDSDSYDLESNSDFEENLESSGEAKKLKWRTYIFYGGLFFVFYFFGSFLMTTVKNNDLESHSSGATSSPGKSFSNLQKQVNHLYSELSKRDEKHSSELDKTVKIIVSQFEKNIKRLLPSNLVNFENDINSLTKQVETISTSMSELQRRNHKFTVENVTQWQDQLVKQLDTHLPQEIPVVINNSSSLLIIPELHNYLSALISDVIESPGIGTAGSAESRWEYDLNRYVKEILSNELQYIDKDYFIQEMNRRLQSNKQEIWEEITNRLETQQQQQQQQVQQDYSNVPQQYSSILMKRLIHQIYNSNQHQWEDDLDFATYVQGTKLLNHLTSPTWRQGSGVQPIELLTDSKQSSSTYWQCENEPGCSWAIRFKTPLYLTKISYMHGRFTNNLHIMNSAPRLISLYVKLSQTKEIKALQTLANQYGFGQHHKRDRNYIKIAKFEYRLTDSRIRQQMYLPPWFIQLKPLVRSIVFQVDENYGNKKFISLRKFIINGVTPQDLQIIENNEFPVLLGDTPEYGVTQNTDEGKRKVLLSKPPYASSSTSTKFHPASNVPSFGQDELDQ
partner: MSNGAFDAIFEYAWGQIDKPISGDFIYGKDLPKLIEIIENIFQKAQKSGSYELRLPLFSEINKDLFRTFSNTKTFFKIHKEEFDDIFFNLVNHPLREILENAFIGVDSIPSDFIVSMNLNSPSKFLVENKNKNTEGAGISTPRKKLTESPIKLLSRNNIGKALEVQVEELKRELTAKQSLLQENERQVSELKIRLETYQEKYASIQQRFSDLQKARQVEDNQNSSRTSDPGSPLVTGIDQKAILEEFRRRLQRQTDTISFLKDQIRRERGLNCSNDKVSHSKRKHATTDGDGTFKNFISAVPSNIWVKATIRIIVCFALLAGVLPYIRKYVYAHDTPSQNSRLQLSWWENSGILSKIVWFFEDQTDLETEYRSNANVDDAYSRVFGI

Variants of: B1
Conditions: with mps2_yeast MPS2, P53159

Row | Variant | effect of a mutation on the interaction
1 | W487A | decreasing interaction
2 | W477A | decreasing interaction
3 | Q572L;Q573L | decreasing interaction
